Reference: publication PMC8518580

test system: NbeEF1A (eEF1A) (Nicotiana benthamiana); assay: MST; conditions: EMSA: LightShift REMSA kit, 30 min, 25 °C, 5% native PAGE (buffer not given); MST: Monolith NT.115, RED-labelled NbeEF1A, labelling in PBS, temperature not …

Substance | Kd [nM]
CWMV RNA1 (+) 3'-UTR | 7.32
CWMV RNA2 (+) 3'-UTR | 12.5
RNA1 3'-UTR del6730-6987 | 67.7
RNA1 3'-UTR del6988-7147 | 964
RNA2 3'-UTR del3174-3406 | 68.5
RNA2 3'-UTR del3407-3569 | 997

test system: NbeEF1A (eEF1A) (Nicotiana benthamiana); assay: MST; conditions: EMSA: LightShift REMSA kit, 30 min, 25 °C, 5% native PAGE (buffer not given); MST: Monolith NT.115, RED-labelled NbeEF1A, labelling in PBS, temperature not …; remark: another data set of the same source

Substance | Kd [nM]
CWMV RNA2 (+) 3'-UTR | 6.51
RNA2 3'-UTR dSL-1 (del3419-3429) | 117
RNA2 3'-UTR dSL-2 (del3469-3471) | 91.7
RNA2 3'-UTR dSL-3 (del3500-3503) | 33.5
RNA2 3'-UTR dSL-4 (del3505-3509) | 113
RNA2 3'-UTR dSL-5 (del3532-3535) | 36
RNA2 3'-UTR dSL-6 (del3561-3565) | 998

test system: NbeEF1A (eEF1A) (Nicotiana benthamiana); assay: EMSA; conditions: EMSA: LightShift REMSA kit, 30 min, 25 °C, 5% native PAGE (buffer not given); MST: Monolith NT.115, RED-labelled NbeEF1A, labelling in PBS, temperature not …

Substance | binding signal (% of WT 3'-UTR)
RNA2 3'-UTR dSL-6 (del3561-3565) | 6
